Measured values as given in PMC8304084, “A Concerted Action of UBA5 C-Terminal Unstructured Regions Is Important for Transfer of Activated UFM1 to UFC1” (International Journal of Molecular Sciences, 2021).
Entries after “also recorded” stand apart in the source; their conditions may differ.

Columns and labels:
[1] = molecular target: T1, UFC1 (Homo sapiens, UniProt Q9Y3C8); assay: ITC, UBA5 constructs vs UFC1; format: binding; settings: for N: ITC stoichiometry; for N / ΔG / −T*ΔS / ΔS / KA*10^−6: peptide vs UFC1; for N / KA*10^−6 / ΔH: ± = fitting error; for ΔG / −T*ΔS / ΔS / KA*10^−6 / Kd / ΔH: ITC, 25 °C; for ΔS / Kd / ΔH: one-site model; for ΔS: single profile; for KA*10^−6: value is KA × 10^−6; for Kd / ΔH: VP-ITC, peptide ~400 µM titrated into 20–25 µM UFC1, 25 mM HEPES pH 7.5, 100 mM NaCl, single ITC profile
T1 construct: Full length UFC1, residues 1–167; modified ubiquitin tag (Ub19) with TEV site (N, cleaved yes); made in house; host or cells: E. coli T7 Express
T1 sequence (Q9Y3C8 1-167): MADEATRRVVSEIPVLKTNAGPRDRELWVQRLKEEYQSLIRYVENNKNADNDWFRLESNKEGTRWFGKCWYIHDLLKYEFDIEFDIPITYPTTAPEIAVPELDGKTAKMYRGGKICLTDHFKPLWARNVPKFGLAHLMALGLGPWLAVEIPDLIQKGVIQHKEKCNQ
Excerpt: (§1) To understand how the UBA5 C-terminus participates in the ufmylation cascade, we performed isothermal titration calorimetry (ITC) experiments, in which we titrated UBA5 C-terminal peptides (see Table 1) to the UBA5 AD, UFC1, UFM1 and representative LC3/GABARAP proteins (Figure 2A, Supplementary Figure S2A–D and Table 2).
To investigate if conjugation of UFM1 to the UBA5 catalytic cysteine (C250) affects the UFC1:UBA5 interactions, we prepared full length UBA5 C250K mutant and stably conjugated UFM1 to it as reported before for a number of ubiquitin-specific E2 enzymes. We compared the UFC1 spectra after addition of a twofold molar excess of FL^1–404 and FL^1–404 C250K~UFM1 constructs (Supplementary Figure S5C).
(§2) All proteins and peptides were expressed in E.Coli T7 Express (New England Biolabs GmbH, Frankfurt, Germany) cells in LB or M9 (to obtain ^15N- and ^13C,^15N-labeled polypeptides) media according to the protocol described in [33, 36]. For protein purification, bacterial cell pellets were resuspended in lysis buffer (50 mM Tris-HCl pH = 7.5, 100 mM NaCl, 5% glycerol, 5 mM PIC (protease inhibitor cocktail)) and lysed via sonication (TT13 Sonotrode, 40% amplitude, for 6 × 1 min with a 0.5/0.5-s pulse). Lysates were centrifuged for 45 min at 17,000× g at 4 °C. Supernatants were loaded onto a His Trap Fast Flow 5 mL column (GE Healthcare, München, Germany) equilibrated in loading buffer (50 mM Tris-HCl pH = 8.0, 250 mM NaCl, 1% glycerol, 20 mM imidazole). The column was washed with loading buffer for 5–10 CV and protein was eluted with elution buffer (50 mM Tris-HCl pH = 8, 250 mM NaCl, 1% glycerol, 400 mM imidazole). Simultaneous TEV cleavage (1 mg TEV protease was added to 100 mg peptides/proteins) and buffer exchange to loading buffer via dialysis was performed over night at 4 °C. After reverse IMAC, proteins were concentrated with conical concentrators (Millipore Merck, Darmstadt, Germany) and loaded on a Superdex 10/60 75 or 200 column (GE Healthcare, München, Germany) for further purification and equilibration with ITC/NMR buffer (25 mM HEPES pH = 7.5, 100 mM NaCl). For structural NMR spectroscopy, buffer containing 50 mM Tris-HCl pH = 7.5, 100 mM NaCl was used. Prior to NMR experiments, TCEP and protease inhibitors cocktail were added to the samples to final concentrations 1 and 5 mM, respectively. Purified peptides and protein were concentrated and stored at −80 °C. The protein and peptide concentrations were calculated from the UV absorption at 280 nm by Nanodrop spectrophotometer (Thermo Scientific, Langenselbold, Germany).
(§3) All ITC experiments were performed at 25 °C using a VP-ITC microcalorimeter (Malvern Panalytical Ltd., Malvern, UK). Peptides in concentration of ~400 µM were titrated into 20–25 µM solutions of corresponding binding partner at a stirring speed of 307 rpm. The raw data were corrected on the dilution heat of peptides obtained in independent experiment (titration of the peptide in syringe into the ITC/NMR buffer in the measuring cell). Pre-titration delay was set to 180 s, interval between titration steps was experimentally adjusted to avoid kinetic contribution to the observed heat effects and set to 200 s. A single ITC profile was collected for each type of interaction. The ITC data were analyzed based on a “one-site” binding model with MicroCal ITC software implemented in Origin 7.0.

[2] = molecular target: T1, UFC1; assay: In vitro thioester formation (ufmylation) assay, UFC1~UFM1 conjugate; format: biochemical; settings: for effect on UFC1~UFM1 conjugation (in words): 1 mM ATP, 22 °C, peptides added to UBA5 AD^1–330 where applicable; for UFC1~UFM1 conjugate fraction (in words): ATP reduced to 25 µM, compared to wild type peptide
Description: First, we analyzed the effect of the UBA5 C-terminus on UFM1 transfer to UFC1 with an in vitro thioester formation assay (Figure 1B–E).
Ufmylation reaction assays were adopted from work of Xie. Briefly, 70 µM UFM1, 20 µM UFC1 and 20 µM of different UBA5 constructs were mixed in reaction buffer (50 mM HEPES pH = 7.5, 100 mM NaCl, 5 mM MgCl2). After starting the reaction with addition of 1 mM ATP, the reaction mix was incubated at 22 °C for the desired time. To quench the reaction and prepare electrophoretic samples, 1 µL of the reaction mix was added to 99 µL 1x non-reducing SDS loading buffer and frozen in liquid nitrogen. Sample content was visualized by sodium dodecyl sulfate polyacrylamide gel electrophoresis (SDS-PAGE). The transfer to polyvinylidene difluoride (PVDF) membrane was performed via a Trans-Blot® Turbo™ Transfer System (Bio-Rad, München, Germany). After transfer the membrane was blocked with TBST (Tris-buffered saline with Tween20 buffer, 20 mM Tris, 150 mM NaCl and 0.1% TWEEN 20) containing 5% w/v nonfat dry milk for 1 h, followed by α-UFC1 antibody incubation over night at 4 °C (ab189251 abcam, 1:10,000 in TBST containing 5% w/v nonfat dry milk). After washing with TBST the membrane was incubated with secondary antibody (anti-rabbit-HRP) for 1 h at RT and again washed with TBST. Detection was performed by addition of ECL solution. For quantification of UFC1 ufmylation coloc2 software implemented in ImageJ was used.

[3] = molecular target: T2, GABARAPL2 (Homo sapiens, UniProt P60520); assay: ITC, UBA5 peptides vs GABARAPL2; format: binding; settings: for affinity increase to GABARAPL2 vs wild type peptide / ΔG / ΔS / −T*ΔS / KA*10^−6: 25 °C; for ΔG / ΔS / −T*ΔS: vs GABARAPL2; for KA*10^−6: vs GABARAPL2, value is KA × 10^−6, ± = fitting error; for affinity change, GABARAPL2: A371 mutants of R1-R2-R3^325–404
T2 construct: modified ubiquitin tag (Ub19) with TEV site (N, cleaved yes); made in house; host or cells: E. coli T7 Express
Excerpt: as §1, §2, §3

[4] = molecular target: T3, UFM1 (Homo sapiens, UniProt P61960); assay: ITC, UBA5 peptides vs UFM1; format: binding; settings: 25 °C; for ΔG / −T*ΔS: vs UFM1; for ΔS: vs UFM1, one-site model, single profile; for KA*10^−6: vs UFM1, value is KA × 10^−6, ± = fitting error
T3 construct: Full length UFM1, residues 2–83; modified ubiquitin tag (Ub19) with TEV site (N, cleaved yes); made in house; host or cells: E. coli T7 Express
Excerpt: as §1, §2, §3

[5] = molecular target: T4, LC3B (Homo sapiens, UniProt Q9GZQ8); assay: ITC, UBA5 peptides vs LC3B; format: binding; settings: for affinity increase to LC3B vs wild type peptide / ΔG / ΔS / −T*ΔS / KA*10^−6: 25 °C; for ΔG / ΔS / −T*ΔS / KA*10^−6: vs LC3B; for KA*10^−6: value is KA × 10^−6, ± = fitting error; for affinity change, LC3B: A371 mutants of R1-R2-R3^325–404
T4 construct: LC3B, residues 5–120; ubiquitin tag Ub3 (vector pETm60_Ub3) (cleaved yes); made in house; host or cells: E. coli T7 Express
Excerpt: as §1, §2, §3

[6] = molecular target: T1, UFC1; assay: NMR titration with UFC1; format: binding; settings: [15N,1H] TROSY-HSQC, 25 °C
Description: To understand the role of the UBA5 C-terminal region in coordination of the binding events reported above on the molecular level, we performed NMR titration experiments. […] It seems, that these UBA5 residues form additional interactions with UFC1.
All NMR experiments were performed at a sample temperature of 25 °C on Bruker 600, 700, 800, 900, and 950 MHz spectrometers equipped with cryogenic probes, and a 500 MHz spectrometer equipped with a room-temperature triple-resonance probe. All NMR spectra were analyzed with the Sparky 3.114 software (University of California, San Francisco, USA). For NMR titration experiments, the non-labeled UBA5 peptides were titrated to 100 µM ^13C,^15N-labeled UFC1 to a final molar ratio of 1:8 (UFC1:UBA5 peptide). Conversely, 100 µM ^13C,^15N-labeled UBA5 peptides were titrated with non-labeled UFC1 to a final molar ratio 1:4 (UBA5 peptide:UFC1). 2D ^1H-^15N correlation spectra ([^15N,^1H] TROSY-HSQC) were recorded at each titration point. The same types of spectra were recorded to estimate binding of ^13C,^15N-labeled UFC1 (75 µM) to non-labeled UBA5, UBA5~UFM1 and UFM1 at 1:2 molar ratios. CSP values, Δδ, were calculated for each individual amide group using the formula Δδ = [(ΔδN/5)^2 + Δδ^2HN)]^1/2.

T3 sequence (P61960 2-83): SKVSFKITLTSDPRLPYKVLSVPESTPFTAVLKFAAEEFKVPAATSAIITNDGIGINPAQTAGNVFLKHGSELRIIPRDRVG
T2 sequence (P60520 3-116): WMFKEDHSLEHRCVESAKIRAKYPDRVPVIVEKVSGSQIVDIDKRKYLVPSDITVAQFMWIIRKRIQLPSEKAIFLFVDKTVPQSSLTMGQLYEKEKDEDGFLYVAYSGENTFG

Row | Substance | effect on UFC1~UFM1 conjugation (in words) [2] | N [1] | ΔG [1] | −T*ΔS [1] | ΔS [1] | KA*10^−6 [1] | Kd [1] | ΔH [1] | affinity increase to GABARAPL2 vs wild type peptide [3] | ΔG [3] | ΔS [3] | −T*ΔS [3] | KA*10^−6 [3] | affinity change, GABARAPL2 [3] | ΔG [4] | −T*ΔS [4] | ΔS [4] | KA*10^−6 [4] | affinity increase to LC3B vs wild type peptide [5] | ΔG [5] | also measured
1 | H-GAMGPVPDLPEGITVAYTIPK-OH [R2^359–376] | virtually no effect |  |  |  |  |  |  |  |  |  |  |  |  |  |  |  |  |  |  |  | interaction / affinity to UFC1 (in words) ([1]; ITC and NMR titration, listed as R2): no direct interactions; also recorded: does not interact with UFC1
2 | R1-R2-R3^325–404 A371E: UBA5 C-terminal part with A371E mutant (res. 325–404) | nearly the same trans-thioesterification efficiency compared to wild type | 1.03 ± 0.005 | -7.88 kcal/mol | -0.11 kcal/mol | 0.36 cal mol^−1 K^−1 | 0.60 ± 0.02 M^−1 | 1600 nM | -7.78 ± 0.05 kcal/mol | ~ 3 fold | -9.95 kcal/mol | 7.23 cal mol^−1 K^−1 | -2.16 kcal/mol | 19.60 ± 2.57 M^−1 | some increase in affinity | -6.86 kcal/mol | 4.56 kcal/mol | −15.3 cal mol^−1 K^−1 | 0.11 ± 0.01 M^−1 | ~ 7 fold | -8.49 kcal/mol | ΔS [5]: 15.3 cal mol^−1 K^−1; −T*ΔS [5]: -4.56 kcal/mol; KA*10^−6 [5]: 1.66 ± 0.12 M^−1; affinity change, LC3B [5]: some increase in affinity; effect on UFC1~UFM1 conjugation (in words) ([2]; listed as A371E): did not affect significantly the formation of the UFC1~UFM1 conjugate; UFC1~UFM1 conjugate fraction (in words) [2]: reduction of the UFC1~UFM1 conjugate fraction
3 | R1-R2-R3^325–404 A371T: UBA5 C-terminal part with A371T mutant (res. 325–404) | nearly the same trans-thioesterification efficiency compared to wild type | 1.03 ± 0.008 | -7.82 kcal/mol | 0.06 kcal/mol | −0.19 cal mol^−1 K^−1 | 0.54 ± 0.03 M^−1 | 1800 nM | -7.88 ± 0.08 kcal/mol | ~ 3 fold | -9.89 kcal/mol | 7.76 cal mol^−1 K^−1 | -2.31 kcal/mol | 17.90 ± 3.75 M^−1 | some increase in affinity | -7.02 kcal/mol | 3.96 kcal/mol | −13.3 cal mol^−1 K^−1 | 0.14 ± 0.01 M^−1 | ~ 3 fold | -8.02 kcal/mol | ΔS [5]: 14.3 cal mol^−1 K^−1; −T*ΔS [5]: -4.26 kcal/mol; KA*10^−6 [5]: 0.76 ± 0.04 M^−1; affinity change, LC3B [5]: some increase in affinity; effect on UFC1~UFM1 conjugation (in words) ([2]; listed as A371T): did not affect significantly the formation of the UFC1~UFM1 conjugate; UFC1~UFM1 conjugate fraction (in words) [2]: reduction of the UFC1~UFM1 conjugate fraction
4 | ΔR3^1–380: UBA5 with deleted R3 region, residues 1–380 |  |  |  |  |  |  |  |  |  |  |  |  |  |  |  |  |  |  |  |  | interaction with UFC1 (in words) [6]: did not interact with UFC1; UFM1 transfer to UFC1, ΔR3^1–380 vs FL^1–404 (in words) ([2]; reactions started with 25 µM ATP): significantly slowed down UFM1 transfer to UFC1
